Here are results for one substance from paper PMC3422348.

The test deals with Cdc37 (Cell division cycle protein 37) (human (endogenous in MDA-MB-453 and MDA-MB-231)) (UniProt Q16543). Description: co-IP; membrane fractions of MDA-MB-453 and MDA-MB-231 cells immunoprecipitated with anti-Cdc37 (18 h, 4°C, protein G-Sepharose), Western blot with anti-HSP90, anti-HER2, anti-EGFR; cells cultured in control medium or with 200 µg/ml anti-Cdc37 or 200 µg/ml mAb 4C5 for 16 h; densitometry. (In western blotting, separated proteins are transferred to a membrane and probed.)
UniProt Q16543, sequence (Q16543 whole entry): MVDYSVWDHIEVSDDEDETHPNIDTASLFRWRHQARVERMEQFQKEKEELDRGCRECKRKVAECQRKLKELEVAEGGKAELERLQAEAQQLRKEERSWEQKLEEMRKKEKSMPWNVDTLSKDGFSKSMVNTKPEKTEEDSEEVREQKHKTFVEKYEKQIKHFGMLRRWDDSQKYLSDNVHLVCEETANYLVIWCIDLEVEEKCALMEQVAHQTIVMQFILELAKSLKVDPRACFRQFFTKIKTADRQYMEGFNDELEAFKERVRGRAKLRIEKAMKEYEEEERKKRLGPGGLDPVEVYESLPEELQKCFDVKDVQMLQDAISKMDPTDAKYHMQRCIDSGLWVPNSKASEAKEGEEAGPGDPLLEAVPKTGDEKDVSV

In turn, “HSP90 (from UniProt P07900 1-732) (natural protein)” came in with a percent decrease of the co-precipitate with 200 µg/ml anti-Cdc37 in the medium (MDA-MB 231) of 56%, a percent decrease of the co-precipitate with 200 µg/ml anti-Cdc37 in the medium (MDA-MB 453) of 33%, a percent decrease of the co-precipitate with 200 µg/ml mAb 4C5 in the medium (MDA-MB 231) of 88% and a percent decrease of the co-precipitate with 200 µg/ml mAb 4C5 in the medium (MDA-MB 453) of 60%.
